Experimental data: the supplement of paper PMC9170038

System: MS2 coat protein
Assay: apparent KD of MS2 coat protein; higher = weaker reporter binding
Settings: Eterna round: R107
How it was run: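 Apparent KD per design is the median of normalised cluster binding-curve fits. Designed RNA switches transcribed on-chip from Illumina sequencing clusters were titrated with SNAP-549-labelled MS2 coat protein in twofold steps from 0.7 or 1.5 nM to 3 µM, with 0.8–1.5 h down to 10–20 min per step. Buffer: 100 mM Tris-HCl pH 7.5, 80 mM KCl, 4 mM MgCl2, without or with constant ligand.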

[1] = input ligand: theophylline 20 uM
[2] = input ligand: theophylline 2 mM
[3] = input ligand: tryptophan 2.4 mM

## UAUCGAGGUACAUGAGGAUCACCCAUGUAUCGAGGACCGGUACGGCCGCCACUCGAUAAUGGCGGAUCGUUAGUCCUCUUCGAUA [Tryp A Ex 4b]
[1]
  apparent KD of MS2 coat protein: 14 nM
[2]
  apparent KD of MS2 coat protein: 12.7 nM

## UAUCGGAACUGAAGGAGCGAGAUGACAAACAUGAGGAUCACCCAUGUUAUGGGUUGUUAAUCUCAGGUAGGUCGCAGUGGUAGCA [#27 Same State - Arginine B]
Input ligand: arginine 13.2 mM
  apparent KD of MS2 coat protein: 52.7 nM
Input ligand: none
  apparent KD of MS2 coat protein: 151 nM
[1]
  apparent KD of MS2 coat protein: 138 nM
[2]
  apparent KD of MS2 coat protein: 194 nM
[3]
  apparent KD of MS2 coat protein: 151 nM

## UAUCGGCACUGAAGGAGCGAGUUGACAAACAUGAGGAUCACCCAUGUUAUGGGUUGUUAAUCUCAGGUAGGUCGCAGUUGUCGCA [Same State Arginine B GF 19]
Input ligand: arginine 13.2 mM
  apparent KD of MS2 coat protein: 221 nM
Input ligand: none
  apparent KD of MS2 coat protein: 334 nM
[1]
  apparent KD of MS2 coat protein: 403 nM
[2]
  apparent KD of MS2 coat protein: 576 nM
[3]
  apparent KD of MS2 coat protein: 500 nM

## UAUCUACAUAUAUAGGUUAUUCGAUUAUUUCGAGGACCGGUACGGCCGCCACUCGUUAACAUAUACAUGAGGAUCACCCAUGUUA [JR_Nu_SSTryptoA_Sub023]
Input ligand: arginine 13.2 mM
  apparent KD of MS2 coat protein: 15.6 nM
[1]
  apparent KD of MS2 coat protein: 19 nM
[2]
  apparent KD of MS2 coat protein: 17.5 nM

## UAUGCACAUGAGGAUCACCCAUGUAUGGAAGGAGCGGUGAAUGAACCAGGUAGGUCGCCAUGGUGAGGAUCAUCUAUGUAUUCGU [Exclusion - Arginine A (Freestyle 8)]
Input ligand: arginine 13.2 mM
  apparent KD of MS2 coat protein: 49.1 nM
Input ligand: none
  apparent KD of MS2 coat protein: 81 nM
[1]
  apparent KD of MS2 coat protein: 101 nM
[2]
  apparent KD of MS2 coat protein: 117 nM
[3]
  apparent KD of MS2 coat protein: 71.7 nM

## UAUGUGAUAGUCGUACUCUCACACUGAGAAGGAGCGCGAUAGUUCGCAGGUAGGUCGCUCAGUUAUACAUGAGGAUCACCCAUGU [Isrice]
Input ligand: arginine 13.2 mM
  apparent KD of MS2 coat protein: 25.3 nM
Input ligand: none
  apparent KD of MS2 coat protein: 32.6 nM
[1]
  apparent KD of MS2 coat protein: 32.9 nM
[2]
  apparent KD of MS2 coat protein: 32.4 nM
[3]
  apparent KD of MS2 coat protein: 26.4 nM

## UAUUUGGUGCGCGAGCGUUGGAUAAUUGAUACCAGUGAAGAAGAGCGCCCUUGGCAGCGAAUCCUAACAUGAGGAUCACCCAUGU [5.S]
Input ligand: arginine 13.2 mM
  apparent KD of MS2 coat protein: 38.2 nM
[1]
  apparent KD of MS2 coat protein: 63.2 nM
[3]
  apparent KD of MS2 coat protein: 41.4 nM

## UCACAUGAGGAUCACCCAUGUGUCAGAGAAGGAGCGGCCGCAAGGCCAGGUAGGUCGCUCAGGUAGCGUGAGGAUCACCCGUGUG [#1 Exclusion - Arginine A Attempt #10 (Inspired by cyborg)]
Input ligand: arginine 13.2 mM
  apparent KD of MS2 coat protein: 23.6 nM
Input ligand: none
  apparent KD of MS2 coat protein: 118 nM
[1]
  apparent KD of MS2 coat protein: 213 nM
[2]
  apparent KD of MS2 coat protein: 141 nM
[3]
  apparent KD of MS2 coat protein: 117 nM

## UCACAUGAGGAUCACCCAUGUGUCAGAGAAGGAGCGGCCGCAAGGCCAGGUAGGUCGCUCGGGUAGCGUGAGGAUCACCCGUGUG [#1 Exclusion - Arginine A Attempt #11 (Inspired by cyborg)]
Input ligand: arginine 13.2 mM
  apparent KD of MS2 coat protein: 31.8 nM
Input ligand: none
  apparent KD of MS2 coat protein: 65.8 nM
[1]
  apparent KD of MS2 coat protein: 175 nM
[2]
  apparent KD of MS2 coat protein: 77.5 nM
[3]
  apparent KD of MS2 coat protein: 45.1 nM

## UCACUCUGGGUGAAUUCCGGAGAUGUGGAAGGAGCGGACGAAAGUCCAGGUAGGUCGCCAUCGGACAUGAGGAUCACCCAUGUAC [Same State - Arginine A (Freestyle 23)]
Input ligand: arginine 13.2 mM
  apparent KD of MS2 coat protein: 71.8 nM
Input ligand: none
  apparent KD of MS2 coat protein: 89 nM
[1]
  apparent KD of MS2 coat protein: 98 nM
[2]
  apparent KD of MS2 coat protein: 131 nM
[3]
  apparent KD of MS2 coat protein: 68.5 nM

## UCAUGAGUUUCGGAUACCAGUGAUGUCGAUACAUGAGGAUCACCCAUGUUAGAGGAUGUACACCCUUGGCAGCCGGGUGUGGCGG [ooimullin]
Input ligand: arginine 13.2 mM
  apparent KD of MS2 coat protein: 33.7 nM
Input ligand: none
  apparent KD of MS2 coat protein: 143 nM
[1]
  apparent KD of MS2 coat protein: 102 nM
[2]
  apparent KD of MS2 coat protein: 102 nM
[3]
  apparent KD of MS2 coat protein: 113 nM

## UCCGCGGAGACGGCCGCCACUGAGUGAGAAGUCGUGCUCUAACUACAUGAGGAUCACCCAUGUCCCAGGACCGGGUCGAAGUGUU [theeternabot_sameState_MS2_Trp_B_36]
Input ligand: arginine 13.2 mM
  apparent KD of MS2 coat protein: 97.4 nM
[1]
  apparent KD of MS2 coat protein: 235 nM
[2]
  apparent KD of MS2 coat protein: 208 nM

## UCCGGACGUUCGGCCGCCACUAAUUUACAUGAGGAUCACCCAUGUGCCAGUGGUCCGCAGAGUAAUAGGACCGGGAACCUUGGCU [theeternabot_exclusion_MS2_Trp_B_10]
Input ligand: arginine 13.2 mM
  apparent KD of MS2 coat protein: 24.4 nM
[1]
  apparent KD of MS2 coat protein: 30.8 nM
[2]
  apparent KD of MS2 coat protein: 26.3 nM

## UCCUACACGGAGACGUGUAGGAGUAAUGAUACCAGCAUGGAGACAUGCCCUUGGCAGCGUUACAUGAGGAUCACCCAUGUGGUGC [ETHA #7]
Input ligand: arginine 13.2 mM
  apparent KD of MS2 coat protein: 14.7 nM
Input ligand: none
  apparent KD of MS2 coat protein: 16.3 nM
[1]
  apparent KD of MS2 coat protein: 26.2 nM
[2]
  apparent KD of MS2 coat protein: 270 nM
[3]
  apparent KD of MS2 coat protein: 17.7 nM

## UCCUGCAGAGCGGCCGCCACUGUAUUGCGUGAGGAUGACCCAACAUGAGGAUCACCCAUGUUGUUUAGGACCGGGCUUGCCACCA [lkpmullin]
Input ligand: arginine 13.2 mM
  apparent KD of MS2 coat protein: 16.7 nM
Input ligand: none
  apparent KD of MS2 coat protein: 14.2 nM
[1]
  apparent KD of MS2 coat protein: 18.5 nM
[2]
  apparent KD of MS2 coat protein: 18.1 nM
[3]
  apparent KD of MS2 coat protein: 18.2 nM

## UCGCCCAGGUAGGAUUGAUGGGAUAUGGAAGGAGCGCUGAUGCCAGCAGGUAGGUCGCCAACGGACAUGAGGAUCACCCAUGUAC [Same State - Arginine A (Freestyle 5)]
Input ligand: arginine 13.2 mM
  apparent KD of MS2 coat protein: 16.5 nM
Input ligand: none
  apparent KD of MS2 coat protein: 18.7 nM
[1]
  apparent KD of MS2 coat protein: 34.6 nM
[2]
  apparent KD of MS2 coat protein: 28.3 nM
[3]
  apparent KD of MS2 coat protein: 25.2 nM

## UCGCGAUAGAGAAGGAGCGUCAACACCACUUAACAUGAGGAUCACCCAUGUGUUACUUUAAGACAGGUAGGUCGCUCUAGCGCUU [JR_Nu_ExcArginiB_Sub027]
Input ligand: arginine 13.2 mM
  apparent KD of MS2 coat protein: 12.7 nM
Input ligand: none
  apparent KD of MS2 coat protein: 12.4 nM
[1]
  apparent KD of MS2 coat protein: 16.5 nM
[2]
  apparent KD of MS2 coat protein: 14.2 nM
[3]
  apparent KD of MS2 coat protein: 11.5 nM

## UCGCUCGCAGAAAUGCGAGCGAGUUGCGAUACCAGCCCGGAAACGGGCCCUUGGCAGCGCACAUGAGGAUCACCCAUGUCAUGUU [Exclusion - Theophylline A Attempt #2 (HarryS)]
Input ligand: arginine 13.2 mM
  apparent KD of MS2 coat protein: 17.3 nM
[1]
  apparent KD of MS2 coat protein: 24.7 nM
[3]
  apparent KD of MS2 coat protein: 18.1 nM
